Positions count from the first letter of the chain named.
B1: 27 (protein, listed as Aspergillus oryzae)
chain: MALGKIALEEAFALPRFEEKTRWWASLFSTDAETHVKEITDINKIRIEHADKHGVGYQILSYTAPGVQDIWDPVEAQALAVEINDYIAEQVRVNPDRFGAFATLSMHNPKEAADELRRCVEKYGFKGALVNDTQRAGPDGDDMIFYDNADWDIFWQTCTELDVPFYMHPRNPTGTIYEKLWADRKWLVGPPLSFAHGVSLHVLGMVTNGVFDRHPKLQIIMGHLGEHVPFDMWRINHWFEDRKKLLGLAETCKKTIRDYFAENIWITTSGHFSTTTLNFCMAEVGSDRILFSIDYPFETFSDACEWFDNAELNGTDRLKIGRENAKKLFKLDSYKDSSA
B2: 25 (protein, listed as Acidovorax avenae)
chain: MAQGKIGLEEHFAIPETLQDSAGFVPGDYWKELSLRLLDIHERRLREMDENGMEMMILSLNAPAVQAIPDTKKAVEIAVRANDFLAEQVARRPDRFQAFAALPMQDPDLATRELERCMQDLGFRGALVNGFSQVGTPENVVYYDAPQYGDFWAAVERLDAPFYLHPRNPIASWAQIYQGHPWLMGPTWAFAQETAVHALRLMASGLFDRHPGLRIILGHLGEGLPYNMWRVDHRNAWVDMPKGYPAKRKLCDYFHENFYLTTSGNFRTQTLIDALLEVGADRILFSTDWPFENVDHAAHWFDDAAISEADRLKIGRTNALSLFKLPQG
B3: 24 (protein)
chain: MALGKVVLEEAYERPNMKEKSNHEAGLYIAPNDRPRYMRQINDINQERLKLADAHGVGYTIISLTVPGIQGIFDKTEAERVATETNNWAAEQIKNHRDRLGAFACLSMHDPAQAANELRRCVQELGFHGALLCSFQHAGPDGETYLFYDQPKYDVFWKALTELDVPLYIHPAAPTGSILERLYAQRPALIGPPLSFANDVSLHTLGIISNGVFDRFPNLKIIIGHLGEHIPFDFWRIDHWFRDVKKPIADEEGRVMAQKSLYHYFKHNIWLTTSGHFSTPTLKYVVNEIGVDRVLFSVDYPYETTESGCNWWDHDKDAIVEAVGGVDNYYAIGRENAKKLLRLDKFHDSDAR
modifications: Aspergillus niger
B4: 19 (protein, listed as Talaromyces marneffei)
chain: MATPIITLEEHYISSAIRDASETDHYAVFPSQIISKLNTLSTERLQDLDNGHVSLQVISHGPGAQPPYLCQAANDELASAISANPTRFAGFALLPIAEPQLAVQELERCITQHKFVGALIDNHTNGQFYDDQKFWPVFEKAQELDAPIYVHPSYPDEESGVAAHYRGNYDDRIAAALGAYGWGWHSDTALSILRLFAAGLFDTYPNIKIIIGHMGEMLPFQLERVIGIASRFGRSRGLREVWTQNIWVTTSGMFALAPLACLLQTMPIERVLYSVDYPFSANEKGFAFLEEIKKSGLIKEGEDWERFLYKNAQELLKVNV
B5: 18 (protein, listed as Legionella pneumophila)
chain: MAIVDFETHFITEACIDYLTQRQEVPKLVPELNGAYTMCFTPDVSLFHTSALMEELLSLNEQRLAIMDQAGVTIQVLSLTTINGIDSCPGDENKSTALAREVNDQLYSAIQKHPERFKGFASISPYDVKEGVKELERAISQLGFVGWLTHSNFGQDNYLDDKIYWPLLEAAESLNIPIYLHPNVPIMREFGKYGFALGGSALGFEFDTALCLMRMILGGVFDAFPKLKIMLGHLGETMPFLMERLDHLYRIPDLKPYRPSIQRIPSEVLRQNVYITTSGRFFVPALRYVLEVMGEDRVLFASDYPMESLLDATRFIQDSDLSNQTKQKIFSINAKNLNLI
B6: 20 (protein, listed as Legionella pneumophila)
chain: B5 chain with E31D, K112R, I163T, S173G, P256A
B7: 23 (protein, listed as Aplysina aerophoba)
chain: MAIDIDARSQPGLETARRAMSRRDFLGGAAAFGITAAATTALPASTAAGEEEDLFLLGLEEHFATAELRRLNGIQFPQGTPRFDINDVGAGRIADMDAAGIDIQVLSALTPGAQNLPGAEGVAYARRLNSWVAHEVIPAYPGRFRAFATLPLSEPQAAADELEYAVRELGFLGCMTYGAVDGKFLDHADFVPVLARAETLDVPIYIHPNWASPQVMDTYYNGLGNEWVSRVLSGAGYGWHQEVALQCLRMIASGVFDRFPRLQIIVGHMGEGLPFFYWRFGDDLARITADTLEKPVQQYFHDNFWITTSAFFRDELLRLVLSVMGEDRVMFAVDYPFVSNKVGADWFRAVDLPRNVKEKIAHKNAERLLKIGPF
B8: 26 (protein, listed as Variovorax paradoxus)
chain: MATHMAPMKNKIALEEHFAIDLTIADSQVYARPEVWQGLKSNLLDFEQQRLEKMDEWGTEFSILSLNSPAVQGIPDAKRAIEVAQRANDVLAEQVKRHPTRFGGFAALPMQDPEASARELERCVNQLGFHGFLVNGFSQVGDENIVVYYDDARFNDFWTAAAALKKPFYMHPRDPLLAREPIYDGAHWLTGPTWAFAMETAIHALRLMSSGMFDRHPALQMILGHFGEGIPFNIWRVDHILRKGRRGMPCDKEIGEYLRSNVHITTSGNFRTPTLLSTMLEVGSDRIMYSVDYPFEKHEDAARWFDTCEISENDRQKIGRDNARKLFGLK
B9: 15 (protein, listed as Metarhizium anisopliae)
chain: MAQEIAKSHETSTRFAGFAVLPMRDPEAAAKELERAVKKLGFVGALVDHKTAHGNGFCEGNEYDVLWRKAEQLAVPIYLHPSWPTEKQFQQAYAGNYSPTAAGTIGGAMFNWHSEVGHHVLRLYAAGVFDKFPKLKIIIGHFGEMIPYMLDRIREQDHRLGKTGRTFSEVYDENIWITTSGVWSLDPMRCILANTKIDHILYSVDYPFTMNERGLEWFQELEKSGLLSEEDLALIAYKNCEKLLGVKAPTQD
B10: 17 (protein)
chain: MARGKIALEEAFEVKGMDEEIDAQAALYIAPKDVERYKRQIVSITDERLQLSDQNGIGYSILSLTVPGIQGITDKDKAEKRARDVNNYIHDQIKDHRDRLGAFAALSMHDPRQAGHELRRCVKELGFHGALLNDVQHTGEGDDDQPLFYDQPDYDEFWRVAVELDVPVYLHPAAPLRDTLIYKQSYEDRKYLVGPPQSYCNGVALHLMGIIVNGVFDRFPNLKVIVGHMGERIPFDFWRMDHWVKGVTRPLAEKNGDTVCQKEPLYYFKRNIYITTSGHFSTQNLRYLYEWLGDERMMFSVDFPYERMEHGCQWYDDDAEKIKEALGGRDGYLRVGRDNARRLFKLTKFKDCDAV
modifications: Aspergillus niger
B11: 22 (protein, listed as Staphylococcus epidermidis)
chain: MAKSINFEEHYVVDDIQKETMKYMSSDPNGVPMQTMLKGLEQKSGFTNADDITKHDERIKFMDEHDVEMQVLSYGNGAPSNLEGERAIELCQQANDTLAKYVNEHPDRFVGFATLPINEPQAAVEEFKRCIKELGFKGALIMGHPKNGFLDQDQYDDLFATAEALNVPIYLHPSPVQSDVYQAYYKGNYSDVTAATFACFGYGWHVDVGIHAIHLVLSGVFDRHPNLNMIIGHWGEFVPFFLERMDDILFADHLEHPISYYFKNNFYITPSGMLTKPQFDLVKAEVGVDRILYSADYPYVEPDKLGTFLDELDLTEEEKEKISYKNGAKLLGLEK
B12: 125 (protein)
chain: MAQGKVALEEHFAIPETLQDSAGFVPGDYWKELQHRLLDIQDTRLKLMDAHGIETMILSLAAPAVQAIPDRRKAIEIARRANDFLAEECAKRPDRFLAFAALPLQDPDAATEELQRCVNDLGFVGALVNGFSQEGDGQTPLYYDLPQYRPFWGEVEKLDVPFYLHPRNPLPQDSRIYDGHPWLLGPTWAFAQETAVHALRLMASGLFDEHPRLQIILGHMGEGLPYMMYRIDHRIAWVHEPPRYPAKRRFMDYFNENFHITTSGNFRTQTLIDAILEIGADRILFSTDWPFENIDHASDWFNATSIAEADRVKIGRTNARRLFKLDGA
modifications: Dicamba decarboxylase variant clone: S03970523
B13: 8 (protein, listed as Metarhizium anisopliae)
chain: MARGKINFEEAFELPTLADSSREQAALYIAPKDLDRYIYHIKHPLGERLQLANSHGIGYTIYSLTVPGIQGIPDQSKAEQHATTVNDWIANEIKDHRDRLGAFAALSMHDAAQAAAELERCVRQHGFHGALLNNYQHAGPDGETYLFYDQPAYDVFWQKCVELDVPVYLHPAAPAGNYYKQMYAQRKYLVGPPLSFANDVSLHLLGLVTNGVFDRFPKLKVVVGHLGEHIPFDFWRISHWLEDVERPLAAGRGDVMSKKDLLYYFKNNIWVTTSGHFSTPTVRYVADYLGPERIMFSVDTPYETIENGVGWFDGEEDALTRALGGEDGYKKVARENAKKLFKLTKYHDCDA
B14: 21 (protein, listed as Agrobacterium tumefaciens)
chain: MAQGKVALEEHFAIPETLQDSAGFVPGDYWKELQHRLLDIQDTRLKLMDAHGIETMILSLNAPAVQAIPDRKKAIEIARRANDVLAEECARRPDRFLAFAALPLQDPDAATQELQRCVNDLGFVGALVNGFSQEGDGQTPLYYDLPQYRPFWGEVEKLDVPFYLHPRNPLPQDSRIYDGHPWLLGPTWAFAQETAVHALRLMASGLFDAHPRLNIILGHMGEGLPYMMWRIDHRNAWVKLPPRYPAKRRFVDYFNENFHITTSGNFRTQTLIDAILEIGADRILFSTDWPFENIDHASDWFNATTIAEADRVKIGRTNARRLFKLDGR
B15: 16 (protein, listed as Staphylococcus aureus)
chain: MAQNNMEANQMKSITFEEHYVIEDIQKETMNAISADPKGVPMKVMLEGLEKKTGFTNADELSHHDERIQFMNNQDVQIQVLSYGNGSPSNLVGQKAIELCQKANDQLANYIAQYPNRFVGFATLPINEPETAAREFERCINDLGFKGALIMGRAQDGFLDQDKYDIIFKTAENLGVPIYLHPAPVNSDIYQSYYKGNYPEVTAATFACFGYGWHIDVGIHAIHLVLSGIFDRYPKLNMIIGHWGEFIPFFLERMDEALFAEHLNHPVSYYFKNNFYITPSGMLTKPQFDLVKKEAGIDRILYAADYPYIEPEKLGVFLDELGLTDEEKEKISYTNGAKLLGLSSNN

Assay: Saturation mutagenesis of SEQ ID NO:109: dicamba decarboxylation activity of point mutants (CO2 released), fold of backbone (Tables 7, 8, Megatable 1)
Conditions: decarboxylation activity (CO2 released) of point mutant vs unmutated backbone protein; backbone SEQ ID NO: 109

Molecule | Fold Activity
B1 | 1 fold
B2 | 1 fold
B3 | 1.6 fold
B4 | 1.6 fold
B5 | 1.2 fold
B6 | 1.8 fold
B7 | 1.5 fold
B8 | 1.2 fold
B9 | 1 fold
B10 | 1.8 fold
B11 | 1.6 fold
B12 | 1.5 fold
B13 | 1.3 fold
B14 | 1.9 fold
B15 | 1.1 fold
